pIC50, pKd: −log10 of the molar value. Like-named read-outs stand apart in the source and are kept apart here.
What was measured:
TGF-β1 [1] = target: T1, TGF-β1 (Homo sapiens, UniProt P01137); assay: BIAcore surface plasmon resonance binding to immobilized TGF-β1; conditions: for binding to immobilized TGF-β1 (in words): BIAcore sensorgram
T1 construct: purchased Collaborative Research (Bedford, Mass.)
Description: (§1) In this system, a purified protein serving as the ligand is covalently coupled to a carboxymethylated dextran surface, and binding molecules (ie. the analyte) are passed in a fluid phase across the surface. Binding of the analyte to ligand causes a change in reflected light which is directly proportional to mass bound, and is measured in arbitrary response units (R.U.). Analyte-ligand binding is observed as both increasing response with time during the injection of analyte, and the difference in the position of the baseline before and after injection.
(§2) Schuster, R. V. Swanson, L. A. Alex, R. B. Bourret, M. I. Simon, Nature 365, 343 (1993). 1000 R.U. equals approximately 1 ng/mm^2. The running buffer was 20 mM Hepes (pH7.2), 150 mM NaCl and the flow rate for all sensorgrams was 3 μl/min. Injection volumes were 36 μl for FIG. 2, 4 and 5 and 45 μl for FIG. 3. […] Protein concentrations in each experiment were (FIGS. 2 and 3), 2, 5, 10, 20, 30, 40 μM; (FIG. 4), 0.21, 0.31, 0.41, 0.62, 0.82, 1.24 μM; (FIG. 5), 0.22, 0.29, 0.44, 0.59, 0.88 μM. R.U. for the immobilized cytokine in each experiment was 2850 R.U. for FIGS. 2 and 3; 7450 R.U. for FIG. 4, and 5300 R.U., for FIG. 5 respectively.
(§3) Data was analyzed using the BIA-evaluation software (Pharmacia Biosensor). The association rate constant, kass, was calculated by first plotting the change in response with time versus response (ie. dR/dT vs R). When the slope of the line from this graph is plotted versus analyte concentration (i.e d(dR/dT)/dR vs C), kass is obtained from the slope of the line. The dissociation rate constant, kdiss, is obtained during the decrease in response with time after analyte injection is discontinued. Specifically, kdiss was obtained from the slope of the line in a plot of ln(Rt1 /Rtn) vs time. The affinity constants were calculated from KD =kdiss /kass. Variance for kass is standard error of the linear regression plot, and for kdiss values are the mean±range of 3 or more independent injections.

BMP-6 = target: T2, BMP-6 (Homo sapiens, UniProt P22004); assay: BIAcore surface plasmon resonance binding to immobilized BMP-6; conditions: ligand BMP-6
T2 sequence (P22004 375-513): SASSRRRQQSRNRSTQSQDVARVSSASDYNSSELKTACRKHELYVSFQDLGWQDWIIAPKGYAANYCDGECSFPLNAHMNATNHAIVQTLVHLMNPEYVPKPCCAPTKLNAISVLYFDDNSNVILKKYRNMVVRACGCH
Description: as §1, §2, §3

TGF-β2 = target: T3, TGF-β2 (Homo sapiens, UniProt P61812); assay: BIAcore surface plasmon resonance binding to TGF-β2; conditions: ligand TGF-β2; for pKd: KD = kdiss/kass; for kass: ± standard error of linear regression
T3 sequence (P61812 303-414 limits assumed): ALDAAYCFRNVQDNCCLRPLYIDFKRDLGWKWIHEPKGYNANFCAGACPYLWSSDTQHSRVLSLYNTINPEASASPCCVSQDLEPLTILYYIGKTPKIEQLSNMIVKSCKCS
Description: as §1, §2, §3

BMP-4 = target: T4, BMP-4 (Homo sapiens, UniProt P12644); assay: BIAcore surface plasmon resonance binding to immobilized BMP-4; conditions: ligand BMP-4; for pKd: KD = kdiss/kass
T4 sequence (P12644 293-408): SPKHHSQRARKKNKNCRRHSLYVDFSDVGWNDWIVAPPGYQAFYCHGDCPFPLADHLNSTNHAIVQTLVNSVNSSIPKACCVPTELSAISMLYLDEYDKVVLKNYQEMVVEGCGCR
Description: as §1, §2, §3

BMP-2 = target: T5, BMP-2 (Homo sapiens, UniProt P12643); assay: BIAcore surface plasmon resonance binding to immobilized BMP-2; conditions: for pKd: ligand BMP-2, KD = kdiss/kass; for kdiss / kass: ligand BMP-2 immobilized; for kass: ± standard error of linear regression
T5 construct: purchased Genetics Institute, Cambridge, Mass; (a gift, not bought)
T5 sequence (P12643 283-396): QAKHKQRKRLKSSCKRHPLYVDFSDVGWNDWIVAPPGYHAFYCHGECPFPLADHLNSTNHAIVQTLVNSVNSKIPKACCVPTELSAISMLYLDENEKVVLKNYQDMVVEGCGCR
Description: as §1, §2, §3

TGF-β1 [2] = target: T1, TGF-β1; assay: Mv1Lu growth inhibition assay: neutralization of the antiproliferative activity of TGF-β1 (3H-thymidine incorporation); format: cell-based; conditions: Mv1Lu cells; for pIC50 / Maximal effect, percent neutralization: TGF-β1 12 pM; for pIC50: 3H-thymidine incorporation, read-out: half-maximal inhibition (IC50) of the anti-proliferative activity of TGF-β1; for Maximal effect, percent neutralization: 0% = TGF-β1 alone, 100% = no additions
Description: Mv1Lu cells were seeded at 20,000 cells/well in a 96 well plate containing 0.2% FCS in α-MEM and incubated with the indicated concentrations of proteins for 18 hr. […] Before use, bovine thyroglobulin was spun twice in a centricon (M.W. cutoff of 10,000 Da) micro-concentrator (Amicon, Beverly, Mass.) to remove any excess Iodine and T3/T4 thyroid hormones.

[3] = ligand TGF-β1, KD = kdiss/kass, read-out: KD
[4] = ± standard error of linear regression
[5] = ligand TGF-β1 immobilized, ± standard error of linear regression

T1 sequence (P01137 279-390 limits assumed): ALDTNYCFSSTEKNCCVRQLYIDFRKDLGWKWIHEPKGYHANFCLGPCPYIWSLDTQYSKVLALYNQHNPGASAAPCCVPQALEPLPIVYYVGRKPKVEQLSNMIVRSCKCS

pKd (TGF-β1 [1]; [3])	kdiss (TGF-β2) [s⁻¹]	pKd (TGF-β2)	kass (TGF-β2) [M⁻¹ s⁻¹]	kdiss (BMP-4) [s⁻¹]	pKd (BMP-4)	pKd (BMP-2)	kdiss (BMP-2) [s⁻¹]	kass (BMP-2) [M⁻¹ s⁻¹]	pIC50 (TGF-β1 [2])	Maximal effect, percent neutralization (TGF-β1 [2])	kdiss (dissociation rate) (TGF-β1 [1]; ligand TGF-β1 immobilized) [s⁻¹]	kass (association rate) (TGF-β1 [1]; [5]) [M⁻¹ s⁻¹]	binding to immobilized TGF-β1 (in words) (TGF-β1 [1])	Compound	other results
	0.0032	5.24	550 ± 120	0.00058	6.85	7.44	6.2e-05	1700 ± 300	5.38	approximately 150%	0.0016	670 ± 400		Fetuin: Bovine fetuin, glycoprotein from fetal calf serum (ammonium sulfate fractionation, gel filtration), purchased from Sigma	kdiss (BMP-6): 0.0025 s⁻¹; pKd (BMP-6; KD = kdiss/kass): 6.07; kass (BMP-6; [4]): 2900 ± 500 M⁻¹ s⁻¹; kdiss (BMP-2; listed as fetuin): 6.2e-05 s⁻¹; kass (BMP-2; listed as fetuin): 1700 M⁻¹ s⁻¹; pKd (TGF-β1 [1]; ligand TGF-β1, steady-state, read-out: KD, Scatchard type analysis for steady-state binding): 5.34
6.17	0.005	5.42	1300 ± 600	0.0011	7.70	8.51	0.0001	32000 ± 2000	6.66	approximately 150%	0.0019	2800 ± 1000		Thyroglobulin: Bovine thyroglobulin purchased from Sigma, containing the TRH1 domain	kass (BMP-4; [4]): 54000 ± 7000 M⁻¹ s⁻¹; IC50 for inhibition of TGF-β1 activity, fold lower than for fetuin (TGF-β1 [2]): 20 fold
													non-binding	human transferrin: Non-binding control passed over immobilized TGF-β1 [reference compound]	

The next lines start with the compound.

Compound	pKd (TGF-β1 [1]; [3])	kdiss (TGF-β2) [s⁻¹]	pKd (TGF-β2)	kass (TGF-β2) [M⁻¹ s⁻¹]	kdiss (BMP-4) [s⁻¹]	pKd (BMP-4)	pKd (BMP-2)	kdiss (BMP-2) [s⁻¹]	kass (BMP-2) [M⁻¹ s⁻¹]	pIC50 (TGF-β1 [2])	Maximal effect, percent neutralization (TGF-β1 [2])	kdiss (dissociation rate) (TGF-β1 [1]; ligand TGF-β1 immobilized) [s⁻¹]	kass (association rate) (TGF-β1 [1]; [5]) [M⁻¹ s⁻¹]	binding to immobilized TGF-β1 (in words) (TGF-β1 [1])	other results
CC[C@H](C)[C@H](NC(=O)[C@H](CC(N)=O)NC(=O)[C@H](CCC(=O)O)NC(=O)[C@H](CC(=O)O)NC(=O)[C@H](CC(N)=O)NC(=O)[C@H](CCCCN)NC(=O)[C@H](CCCNC(=N)N)NC(=O)[C@H](Cc1c[nH]c2ccccc12)NC(=O)[C@@H](NC(=O)[C@H](C)NC(=O)[C@@H](NC(=O)[C@@H](N)CSCC(N)=O)C(C)C)C(C)C)C(=O)N[C@H](C(=O)N[C@@H](CC(C)C)C(=O)N[C@@H](CCC(=O)O)C(=O)N[C@H](C(=O)N[C@H](C(=O)N[C@@H](CSCC(N)=O)C(=O)N[C@@H](Cc1c[nH]cn1)C(=O)N[C@@H](CC(=O)O)C(=O)O)C(C)C)[C@@H](C)O)[C@@H](C)O [TRH1b (TβRII) (reduced & alkylated)]	< 5.00														
CC[C@H](C)[C@@H]1NC(=O)[C@H](CC(N)=O)NC(=O)[C@H](CCC(=O)O)NC(=O)[C@H](CC(=O)O)NC(=O)[C@H](CC(N)=O)NC(=O)[C@H](CCCCN)NC(=O)[C@H](CCCNC(=N)N)NC(=O)[C@H](Cc2c[nH]c3ccccc23)NC(=O)[C@H](C(C)C)NC(=O)[C@H](C)NC(=O)[C@H](C(C)C)NC(=O)[C@@H](N)CSSC[C@@H](C(=O)N[C@@H](Cc2c[nH]cn2)C(=O)N[C@@H](CC(=O)O)C(=O)O)NC(=O)[C@H](C(C)C)NC(=O)[C@H]([C@@H](C)O)NC(=O)[C@H](CCC(=O)O)NC(=O)[C@H](CC(C)C)NC(=O)[C@H]([C@@H](C)O)NC1=O [TRH1b (TβRII)]															koff (TGF-β1 [1]; ligand TGF-β1 immobilized, read-out: kdiss (dissociation rate)): 0.0019 s⁻¹; kon (TGF-β1 [1]; ligand TGF-β1 immobilized, ± standard error of linear regression, read-out: kass (association rate)): 3700 M⁻¹ s⁻¹
reduced and alkylated fetuin: Fetuin, reduced and alkylated, compared to native fetuin														diminished binding	binding to immobilized BMP-2 (in words) (BMP-2; BIAcore sensorgram): diminished binding

Source: patent US5821227A, “Modulators of cytokines of the tgf β superfamily” (Mount Sinai Hospital Corporation, priority 1995, dated 1998)
